Earlier results, collected in PMC10941800.
Like-named read-outs stand apart in the source and are kept apart here.

Columns and labels:
Details in all cases: cited from earlier work
[1] = biological target: measles virus hemagglutinin (Measles morbillivirus) (UniProt P08362)
[2] = biological target: measles virus hemagglutinin (Measles morbillivirus) (UniProt P08362); remark: listed apart in the source
[3] = biological target: measles virus hemagglutinin (Measles morbillivirus) (UniProt P08362); remark: listed apart in the source

UniProt P08362, sequence (P08362 59-617): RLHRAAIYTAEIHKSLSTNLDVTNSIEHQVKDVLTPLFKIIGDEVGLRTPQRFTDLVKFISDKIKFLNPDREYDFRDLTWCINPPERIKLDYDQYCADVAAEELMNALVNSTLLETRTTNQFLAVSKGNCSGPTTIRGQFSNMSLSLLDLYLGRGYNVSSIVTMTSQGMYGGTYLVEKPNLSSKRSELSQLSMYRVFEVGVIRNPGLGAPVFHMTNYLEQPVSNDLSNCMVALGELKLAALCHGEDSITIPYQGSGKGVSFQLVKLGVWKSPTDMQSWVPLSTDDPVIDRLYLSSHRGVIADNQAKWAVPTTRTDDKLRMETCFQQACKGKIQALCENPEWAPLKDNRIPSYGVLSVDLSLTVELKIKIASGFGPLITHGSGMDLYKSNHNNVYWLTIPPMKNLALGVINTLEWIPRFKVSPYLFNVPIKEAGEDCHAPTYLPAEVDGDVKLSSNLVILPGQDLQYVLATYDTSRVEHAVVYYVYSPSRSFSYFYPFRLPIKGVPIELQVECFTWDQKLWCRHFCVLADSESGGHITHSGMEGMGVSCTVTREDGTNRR

Nectin-4 (from UniProt Q96NY8)
Kd [1]: 670 nM

CD46 (from UniProt P15529)
Kd [2]: 200 nM

SLAM (from UniProt Q13291)
Kd [3]: 170 nM
